Test results published in the supplement of paper PMC10567573.

B1: CDC25B (parent)
chain: ELKTFRLKTRSWAGERSRRELCSR
B2: KRT71 (parent)
chain: FGSRSLYSLGGVRSLNVASGSGKS

Variants of: B1
Assay: protein stability index of a GFP-peptide fusion (GPS, HEK-293T) (PSI 1-6); higher = more stable
Conditions: c terminus: a fixed tail appended
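Further: lentivirally expressed fusions sorted by FACS into six bins by GFP to DsRed ratio, PSI derived from sequencing read proportions per bin multiplied by bin number.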

Protein stability index of substitutions, site by site:
T9: S 4.09; D 3.35; Q 3.13; W 1.54; I 1.99; V 2.6; F 2.18; E 3.69; C 3.58
S11: C 2.63; M 2.42; A 2.68; N 3.2; T 3.1; H 1.95; L 2.61; F 2.58; W 2.57; K 2.64; I 2.71; Q 2.58; R 2.4; P 2.59; V 2.11; E 3.11; G 2.94; D 2.95
E1: W 2.6; D 3.03; S 3.2; T 2.69; V 3.31; A 3.96; M 2.2; H 3.29; G 3.09; N 3.01; R 3.03; Y 2.19; F 1.95; P 3.72; K 2.97; Q 3.57; L 2.8; C 3.07; I 1.9
R6: L 2.04; P 3.75; A 2.78; T 3.39; F 1.75; N 3.3; I 2.06; V 2.32; C 2.14; G 3.34; H 3.25; W 1.89; S 3.33; K 2.85; E 1.84; Q 3.75; Y 2.42; M 2.14; D 3.17
A13: E 3.23; Q 3.01; F 1.88; V 2.44; D 3.98; N 3.81; G 3.41; T 3.1; R 3.49; Y 2.22; K 3.31; C 2.94; I 2.22; H 3.81; S 2.85; P 3.84; L 2.62; M 2.92; W 2.2

Variants of: B2
Assay: as above
Conditions: c terminus: a fixed tail appended

Protein stability index, by site and new letter:
S21: C 1.49; A 1.83; I 2.18; P 2.07; M 1.87; D 2.04; V 1.41; T 1.93; E 1.92; H 2.11; R 2.5; W 1.24; G 1.91; N 1.69; Q 2.29; K 2.06; F 1.73; L 2.11
G22: C 1.69; I 1.57; T 1.45; E 2.83; H 2.75; W 2.36; K 1.73; Q 2.09; A 1.53; D 2.15; F 1.49; Y 2.44; P 1.89; V 1.33; M 1.93; S 1.93; L 1.64; R 2.48; N 2.27
G20: R 1.97; V 1.92; Y 1.87; S 1.87; Q 1.87; P 2; T 2.16; W 1.82
S24: E 2.21; W 1.74; I 1.61; A 1.73; C 1.71; Q 1.55; R 1.49; D 1.89; L 1.76; Y 1.39; K 2.22; N 1.7; P 2.33; T 1.81; H 1.66; F 1.41; V 1.26; M 1.62; G 1.97
K23: R 2.35; M 1.49; P 2.15; C 1.97; Y 1.69; S 1.9; L 1.74; F 2.47; N 2.09; W 2.56; A 1.47; Q 1.77; D 1.92; E 2.03; I 2.12; G 2.09; T 1.56; V 1.88; H 2.03
